Assay results as given in the nanobody polyreactivity screen of Harvey et al. (2022).

Assay: yeast display, Sf9 membrane polyspecificity reagent, FACS + sequencing; frameworks hold sequencing errors
How it was run: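 Genes from sorted yeast were amplified by colony PCR, read by MiSeq 2 × 250 sequencing and filtered on CDR length. These cells carried a synthetic nanobody library in Saccharomyces cerevisiae BJ5465 and were sorted by FACS into low and high (top ~1%) gates on anti-HA and streptavidin fluorescence. Polyreactivity is labelled according to the gate of origin.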

Row | Sequence | polyreactivity (PSR sort gate)
1 | QVQLVESGAGLVQAGGSLRLSSAASGGTFGHYVMGWYRPAPGKERELVAVISRRGGSTYYADSVKGRFTISRDTAKNTVYLQMNSLKPEDTAVYYCAAYQDVSYFKYSPYDYWGQGTQVTVSS | high polyreactivity
2 | QVQLVESGAGLVQAGGSLRLTCAASGRIFVINAMGWLRQAPGKETELVAPITGGGSTNYADSVKGRFTISRDNAKNTVYLQMNSLKPEDTAVYYCAADYRPVRRFYYSRYDYWGQGTQVTVSS | low polyreactivity
3 | QVQLVESGAGLVQAGGSLRVSCAASGLIFAWYAMGWYRQAPGKERELVATIDVSGGTYYADSVKGRFTISRDNAQNTVYLQMNSLNPEDTAVYYCAAGVTYWYDAPEYYYWGQVTQVTVSS | high polyreactivity
4 | QVQLVESGAGLVQAGGTLRLSCAASGFTCRYYAMGWSRQAPGKERELVASISWSGDSTYYADSVKGRFTISRDNAKNTGYLQMNSLKPEETAFYYCARQTGFPRSYIYRMYYWGQGTQVTVSS | high polyreactivity
5 | QVQLVESGAGLVQAGVSLGLSCAASGFTFVRDAMGWYRQAPGKEREFVASISARGGNTFYADSVQGRFSISRDNAKNTVYLKMNSLKPEDTAVYYCAKRGPYGTGYGYWGQGTQVTVSS | high polyreactivity
6 | QVQLVESGAGLVQARGSLRLSCAASGFTISYYAMGWYRQAPVKERELVAAITSGGSTYYADYVKGRFTISRDNAKNTVYVQMNSLKPEDTAVYYCIADGWYYPTDDYWGQGSQVTVSS | low polyreactivity
7 | QVQLVESGAGLVQEGGSLRLSCAASGFTFFGYAMGWYRQEPGKERELVATISDTGGSTYADSVKGRFTISRDTAKNTVYLQMNCVKPEDTAVYYCNARSVFYSMDYWGQGTQVTVSS | low polyreactivity
8 | QVQLVESGAGLVQEGGSLRLSCAASGSIFVGNAMGWYRQAPGKERELVATISWSGGSTYYADSVKGRFTISRDNAKNTVYLQMNSLKPEDTAVYYCAKTPYRRYRYGGYTYRTYDYWGQGTQVTVSS | low polyreactivity
9 | QVQLVESGAGLVRAGGSLRISCAASGNIYGANTMGWYRQAPGKERELDATITWSGGDTYYADSVKGRFTISRDNAKNSVYLQMNSLKPEDTAVYYCATRRFRYRPPFKYDYWVQGTQVTVSS | low polyreactivity
10 | QVQLVESGARLVPAGGTLRLSFADYGFNFGQYAMAWYRQAPGKERELVAAISWSGGSTYYAESVKGRFTISRDNAKNTVYLQMNSLKPEDTAVYYCGEELGDYWGQGTQVTVSS | high polyreactivity
11 | QVQLVESGARLVQEGGSLRLSCAASGSIFGRYVMGGYRQEPGKEREFVAAITYSGSSTYYADSVKGRFTISRDNAKNTVYLQMNSLKPEDSAVYYCNTYPGSFYWMGYWGQGTQVTVSS | high polyreactivity
12 | QVQLVESGCGLVHAGGSLRLSCAASGRILRYYAMGWYGQAPGKDRELVAVITSSDGSTYYADSVKGRITISRDNAMNTVYLQMNSLKPEDTAVYYCAAAPLWRLASWWDPYRRYDYWGQGTQVTVSS | low polyreactivity
13 | QVQLVESGCGLVHAGGSLRLSCAASGSNFGDYAMGCYRQAPGKERELVAAITKSGGTTYYADSVKGRFTISRDNAKNTVYLQMNSLKPEDTSFYYCAADPIRYRSRHKYGYWGQGTQVTVSS | low polyreactivity
14 | QVQLVESGEGLVQAGGSLRLSCAASGRIFYSNDMGWYRQAPGKEREFVAAITDSGGSTYYADSVKGRFTISRDNAKNTVYLQMNSLKPEDTAGYYCAKRQYQSYIRGPYYYWGQGTQVNVSS | low polyreactivity
15 | QVQLVESGGALDQAGGRLPLSSAASGSIFRINAMRLYRQAPGKVRELVAAISWSGGSTYYADSVKGRFTISRDNAKNTVYLQMNSLKQEDTAVYYCADVVSKSSFDYWVQGTQVTVSS | low polyreactivity
16 | QVQLVESGGALVHAGGSLRLSCAASGSILKTYAMGWYIQAPGKEREFVAAMSSGGSTYYADSVKGRFTISRDNAKNTVYLQMNSLKPEDTAVYYCAADPWGDFVSFASYYYWGQGTQVTVSS | low polyreactivity
17 | QVQLVESGGALVQAAGSLRLICAASVIISGCNGMGWYRQAPGKERELVASISDSGSSTYYADSVKGRFTISRDNAKNTVYLQMNSLKPEDTAVYYCATDLLASRYGYWGQGTQVTVSS | low polyreactivity
18 | QVQLVESGGALVQAGGRLLLSCAASGRTFQGYVMGWYRQAPGKERELVAAISRGTSTYYADSVKGRFTISRDNAKNTVYLQMNSLKPEDTAGYYCAADGERRHYWGQGTQVTVSS | low polyreactivity
19 | QVQLVESGGALVQAGGSIRLSCAASGFISRKNALGWYSQAPGKERELVATITKSGDTTYYADSVKGRFTISRDNAKNTVYLQMNSLKPEETAVYYCAAPLYYIGSWDYYVRYIYDYWGQGTQVTVSS | low polyreactivity
20 | QVQLVESGGALVQAGGSLRISCAASGSIFPQNAMGWYRQAPEKERELVAAITTGGGRTYYADSVKGRFTISRDNVKNTVYLQMNSLKPEDTAVYYCYIRWPFRHYGSWGLGTQVTVSS | high polyreactivity
21 | QVQLVESGGALVQAGGSLRLRCAASGTFFIYAMGWYRQAPGKEREFVATISTGGSTNYADSVKGRFTISRDNAKNTVYLQMNSLKPADTAVYYCAAEWLYPHDGGYRRPMDYWGQGTKVTVSS | low polyreactivity
22 | QVQLVESGGALVQAGGSLRLSCAACGRTFWYNAMGWYRQAPGKERELVAAITRGGGRTYYADSVKGRFTISRDNAKNTVYLQMNSLKPEDTAVYYCAADSYYDMNYWGQGTQVTVSS | low polyreactivity

Row | Sequence | polyreactivity (PSR sort gate)
23 | QVQLVESGGALVQAGGSLRLSCAASGFFIFTYAMGWYRQAPGKERELVAAISSRGGSTYYADSVKGRFTISRDNAKNTVYLQMNRLKPEDTAVYYCAAQAYGRYPYGYWGHGTQVTVSS | high polyreactivity
24 | QVQLVESGGALVQAGGSLRLSCAASGFILNKNVMGWYRQPPRKERELVAAITGSGGRTYYADSVKGRFTISRDNAKNTVYLQMNCLKPEDTAVFYCNALPGTQYNYWGQGTQVTVSS | high polyreactivity
25 | QVQLVESGGALVQAGGSLRLSCAASGFIVDAYAMGWYRQAPGKERELVAALTRGNTYYADSVKGRFTISRDNAKNTVYLQMTSLKPEDTGVSCCAARSWQSYRSQVTHSSTLDYWGQGTQVTVSS | low polyreactivity
26 | QVQLVESGGALVQAGGSLRLSCAASGFTFYKNAMGWYRQAPGKERELVAAISRSAGSTYYADSVKGRFTISRDNAKNTVYFQMNSLKPEDTAVYYCNAVSDVKRYDYWGQGTQVTVSS | high polyreactivity
27 | QVQLVESGGALVQAGGSLRLSCAASGIIFGGYALGWYRQEPGKERELVAAISCGGSTNYADSVKGRFTISRDNAKNTVYLQMNSLKPEDTSVYYCAADSASSYSYNYWGQGSQVTVSS | low polyreactivity
28 | QVQLVESGGALVQAGGSLRLSCAASGITFEVYAMGLYRQAPGKAREFVAAITGSGSRTYYADSVKGRFTISRDNAKNTVYLQMNSLKPEDTAVYYCAVKGFSTRSYREFDYWAQGTQVTVSS | low polyreactivity
29 | QVQLVESGGALVQAGGSLRLSCAASGLTFRDNAIGWYRKAPGKERELVDAISTNGGSTYYADSVKGRFTISRDNAKNTVYLQMYSLKPEVTAVYYCAADYDYQYRYYYWGQGTQVTVTS | low polyreactivity
30 | QVQLVESGGALVQAGGSLRLSCAASGPIFGVYAMGWYRQAPGKERELVAAITYTGASTYYADSVKGRFTISRDNAKNTVYLQMNSLKPEDTAVYYCAGRLWRRSRFDYWGQGTQVTVSS | high polyreactivity
31 | QVQLVESGGALVQAGGSLRLSCAASGRTFVSYVMGWYRQAPGKEREMVAAISGNGGRTYYADSVKGRFTISRDYAKKTVYLQMNSLKPEDTAVFYCAAELFVSYFDVLMYYWGQGTQVTVSS | high polyreactivity
32 | QVQLVESGGALVQAGGSLRLSCAASGRTFWRNTMGWYRQAPGKEREFVAAITFSGVRTYYADSVKGRFTISRDNAKNTVYLQMNSLKPQDTAVYYCAKSRQYIGGFDYWGQGTQVTVSS | high polyreactivity
33 | QVQLVESGGALVQAGGSLRLSCAASGRTINYYAMGWYRQAPGKERELVAAITWSGSSTYYADSVKGRFTISRDNAKYTVYLQMNSLKPEDTAVYYCNKASYTGYRSKRFYYWGQGTQVTVSS | high polyreactivity
34 | QVQLVESGGALVQAGGSLRLSCAASGRTLESNAMGWYRQTPGKERELVAAISTIGGTYYADSVKGRFTLSRDNAKNTVYLQMNSLKPEDTAVYYCAKVWYDHSYIPIYDSWGQGTQVTVSS | low polyreactivity
35 | QVQLVESGGALVQAGGSLRLSCAASGSIFRYNAMGWYRQAPGKEREFVAIISYSGVRTYYADSVKGRFTISRDNAKNTVYLQMNSLKPADTAVYYCAADFKQKGHRTRTTYWGQGTQVTVSS | high polyreactivity
36 | QVQLVESGGALVQAGGSLRLSCAASGSIFVSYAKGWSRPAPGKERELLATITTSTGSTYADSVKGRFTISRDNAKNTVYLQMNSLKPEDTAVYYCAARYQPWLKYDFDSWGQGTQVTVSS | low polyreactivity
37 | QVQLVESGGALVQAGGSLRLSCAASGSILDPKAMGWYRQAPGKERELVASISRGDNTYYADSVKGRFTISRDNAKNTVYLQMNSLKPEDSAVYYCAADYSWVVWHDYWGQGTQVTVSS | low polyreactivity
38 | QVQLVESGGALVQAGGSLRLSCAASGSTFAYYAMGWSRPAPGKERELVAAITRGGRTNYADSVKGRFTISRDNAKNTVYVQMNSLNREDTAVYYCAARSGRSWLTCSYDYWGQGTQVTVSS | high polyreactivity
39 | QVQLVESGGALVQAGGSLRLSCAASGSTFLNYAMRGYRQATGKARELVAGINSGGSTNYADSVKGRFTISRDNAKNTVYLQMNSLKPEDTAVYYCAGDRVGNEYDYWGQGTQVTVSS | low polyreactivity
40 | QVQLVESGGALVQAGGSLRLSCAASGSTLAYNAMGWYRQAPGKERELVAGIRGSGGSTYYADSVKGRFTISRDNAKNTVYLQMNSLKPEDTAVYYCNADSSVGHPPDGEYWGQGTQVTVSS | low polyreactivity
41 | QVQLVESGGALVQAGGSLRLSCAASGYIFPGNAMGWYRQAPGKEREVVAGITSSGTSTYYADSVKGRFTISRDNAKNTVYLQMNSLKQEDTAVYYCAADALWGTGSGFDYWGQGTQVTVSS | low polyreactivity
42 | QVQLVESGGALVQAGGSLRLSCAASRFTFTRYVMGWYSQAPGKERELVAAISINGGRTYYADSVKGRFTISRDNAKNTVYLQMNSLKPEDTAVYDCAAERYYWYTEMGYWGQGTQVTVSS | high polyreactivity
43 | QVQLVESGGALVQAGGSLRLSCSASGSTLPGYAMVWYRQAPGKERELVAGISTRGGNTYYADSVKGRFTISRDNAKNTVYGQLNSLNPEDTAVYYCATTSSWRYGYWGEGTQVTVSS | high polyreactivity
